Patent US20200317755A1 (HUMABS BIOMED, published 2020)
Read-outs that look alike come from different tables or passages of the source.

Legend:
[1] = molecular target: MR766 (Zika virus); assay: cell-based or functional assay
[2] = molecular target: MRS-OPY (Zika virus); assay: cell-based or functional assay
[3] = molecular target: PV10552 (Zika virus); assay: cell-based or functional assay
[4] = molecular target: T1, E protein of ZIKV strain H/PF/2013 (on infectious virus) (Zika virus); assay: cell-based or functional assay
[5] = molecular target: E protein of MARM2 (E370K) (Zika virus); assay: cell-based or functional assay
[6] = molecular target: E protein of MARM1 (T335R) (Zika virus); assay: cell-based or functional assay
[7] = molecular target: T1, E protein of ZIKV strain H/PF/2013 (on …); assay: cell-based or functional assay; remark: listed apart in the source
[8] = molecular target: T1, E protein of ZIKV strain H/PF/2013 (on …); assay: cell-based or functional assay; remark: listed apart in the source
[9] = molecular target: T1, E protein of ZIKV strain H/PF/2013 (on …); assay: cell-based or functional assay; remark: listed apart in the source
[10] = molecular target: T2, Zika virus-like particles (VLP) (Zika virus); assay: ELISA
T2 construct: also called ZIKV VLP; ZIKV VLPs

[11] = molecular target: T3, ZIKV EDIII (Zika virus, UniProt A0A024B7W1 599-693); assay: ELISA
T3 construct: also called domain III of ZIKV E protein; DIII ZI

[12] = molecular target: T4, ZIKV E protein (Zika virus, UniProt Q32ZE1 291-694); assay: ELISA
T4 construct: domain: envelope protein (E protein); also called Zika virus envelope protein; recombinant ZIKV E protein

[13] = molecular target: T5, DENV1 E protein (Dengue virus serotype 1); assay: ELISA
T5 construct: also called E protein of dengue virus serotype 1

[14] = molecular target: T6, DENV1 (Dengue virus 1); assay: cell-based or functional assay
T6 chain: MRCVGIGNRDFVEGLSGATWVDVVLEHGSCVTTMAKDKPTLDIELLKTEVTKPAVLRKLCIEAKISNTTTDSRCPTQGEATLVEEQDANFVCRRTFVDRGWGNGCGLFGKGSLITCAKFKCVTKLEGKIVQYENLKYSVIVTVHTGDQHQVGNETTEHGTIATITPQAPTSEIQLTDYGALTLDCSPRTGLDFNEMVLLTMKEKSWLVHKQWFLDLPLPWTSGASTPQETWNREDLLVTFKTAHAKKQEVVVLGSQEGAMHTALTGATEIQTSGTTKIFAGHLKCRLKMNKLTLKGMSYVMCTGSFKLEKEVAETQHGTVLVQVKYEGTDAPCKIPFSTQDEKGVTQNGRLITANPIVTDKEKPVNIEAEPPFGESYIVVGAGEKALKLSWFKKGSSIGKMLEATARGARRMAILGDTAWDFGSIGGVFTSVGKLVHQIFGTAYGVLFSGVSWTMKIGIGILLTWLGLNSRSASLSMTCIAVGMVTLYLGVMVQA

[15] = molecular target: T7, DENV2 VLP (Dengue virus 2); assay: ELISA
T7 construct: virus-like particle; also called DENV2 virus-like particle

[16] = molecular target: DENV4 E protein (Dengue virus serotype 4); assay: ELISA
[17] = molecular target: T8, DENV3 VLP (Dengue virus 3); assay: ELISA
T8 construct: virus-like particle; also called DENV3 virus-like particle

[18] = molecular target: DENV3 E protein (Dengue virus serotype 3); assay: ELISA
[19] = molecular target: T4, ZIKV E protein; assay: ELISA; remark: listed apart in the source
[20] = molecular target: DENV2 E protein (Dengue virus serotype 2); assay: ELISA
[21] = molecular target: T9, DENV1 VLP (Dengue virus 1); assay: ELISA
T9 construct: virus-like particle; also called DENV1 virus-like particle

[22] = molecular target: T10, DENV4 VLP (Dengue virus 4); assay: ELISA
T10 construct: virus-like particle; also called DENV4 virus-like particle

[23] = molecular target: T5, DENV1 E protein; assay: ELISA; remark: listed apart in the source
[24] = molecular target: T3, ZIKV EDIII; assay: ELISA; remark: listed apart in the source
[25] = molecular target: T4, ZIKV E protein; assay: ELISA; remark: listed apart in the source

B1: ZKA185 (antibody, V domains shown)
VH: EVQLVQSGAEVKKPGESLRISCKGSGYSFTSYWITWVRQMPGKGLEWMAKFDPSDSQTNYSPSFQGHVTISVDKSISTAYLQWSSLKASDTAMYYCARRYCSSSSCYVDNWGQGTLVTIFS
VL: SYELTQPPSVSVSPGQTARITCSGDALPNKFAYWYRQKSGQAPVLVIYEDNKRPSGIPERFSGSSSGTMATLTISGAQVEDEADYHCYSTDSSSNPLGVFGGGTKLTVL
notes: also called ZKA185 IgG; ZKA185 mAb
IC50 (read off the curve), neutralisation [1]: ~0.03 nM | IC50 (read off the curve), neutralisation [2]: ~0.08 nM | IC50 (read off the curve), neutralisation [3]: ~0.06 nM | IC50 (read off the curve), neutralisation [4]: ~0.1 nM | IC50 (read off the curve), neutralisation [5]: ~0.1 nM | IC50 (read off the curve), neutralisation [6]: ~0.1 nM | IC50 (read off the curve), neutralisation [7]: ~0.1 nM | IC50, ZIKV neut [8]: 0.013 µg/mL | IC50 (read off the curve), neutralisation [9]: ~0.01 nM | EC50 (read off the curve) [10]: ~0.03 nM | binding result [11]: no binding

B2: ZKA78 (antibody, V domains shown)
VH: EVQLAESGGGLVQPGGSLTLSCSGSGFTFSNYAMVWARQAPGKGLEYVSGIGRNGDSIYYTDSVKGRFTISRDNSKSMVYLQMSSLRTEDTAVYYCVKDLAIPESYRIEADYWGQGTLVIVSA
VL: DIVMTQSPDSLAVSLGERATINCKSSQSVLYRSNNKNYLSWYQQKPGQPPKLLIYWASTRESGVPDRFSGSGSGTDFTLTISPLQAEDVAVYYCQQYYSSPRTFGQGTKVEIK
notes: also called cross-reactive antibody ZKA78
EC50 [12]: 2.76 µg/mL | EC50 [13]: 1.41 µg/mL | IC50, DENV1 neut [14]: 0.266 µg/mL | IC50, ZIKV neut [8]: 2.86 µg/mL | EC50 [15]: 0.083 µg/mL | EC50 [16]: 0.385 µg/mL | EC50 [17]: 0.131 µg/mL | EC50 [18]: 0.033 µg/mL | EC50 [19]: 2.76 µg/mL | binding result [11]: no binding | EC50 [20]: 0.982 µg/mL | EC50 [21]: 0.158 µg/mL | EC50 [22]: 0.136 µg/mL | EC50 [23]: 1.41 µg/mL

B3: ZKA185 Fab (Fab, V domains shown)
VH: B1 VH
VL: B1 VL
IC50 (read off the curve), neutralisation [9]: ~0.8 nM | EC50 (read off the curve) [10]: ~0.03 nM | binding result [24]: no binding (tested: 10 nM)

B4: ZKA230-Fab (Fab, V domains shown)
VH: QVQLQESGPGLVKPSETLSLTCAVSGGSISSDYWSWIRQPPGKGLEWIGYIYYSGSTNYNPSLKSRVTISVDTSKNHFSLKLNSVTAADTAVYYCARRRKYDSLWGSFAFDIWGQGTMVTVSS
VL: QSVLTQPPSASGTPGQRVTISCSGSSSNIGGNYVYWYQQLPGTAPKLLICINDHRPSGVPDRFSGSKSGTSASLAISGLQSEDEADYYCATWDDSLGGLVFGGGTKLTVL
notes: also called Fab of ZKA230
binding result [25]: no binding (tested: 10 nM) | binding result [24]: no binding (tested: 10 nM)
